The source of these data is US20030186334A1, “KTS-disintegrins” (Temple University - Of the Commonwealth System of Higher …, priority 2001, published 2003).

As usually defined, the IC50 is the midpoint of a concentration-inhibition curve. Low values mean higher potency, high ones lower potency.

The test system of assay [1] is MV3 human melanoma cells. Put plainly: MV3 melanoma cell migration through HUVEC layer. In kind it is cell-based. Particulars: 3 hours. How it is done: Cell migration through an endothelial cell layer is an important event in cancer cell metastasis. The effect of obtustatin on melanoma cell migration through an endothelial cell layer in vitro was evaluated as follows. Human umbilical vein endothelial cells (HUVECs) of 3-7 passages were purchased from Cascade Biologics (Portland, Oreg.). The HUVECs were seeded into 8.0 μm pore size FALCON® HTS FluoroBlok™ inserts (Becton Dickinson, Franklin Lakes, N.J.) in serum-containing endothelial cell growth medium. The inserts were placed into the wells of a 24-well plate (Becton-Dickinson), and the HUVECs allowed to grow to confluence on the insert over 72 hours. The interior of the FluoroBlok™ inserts is referred to below as the “upper chamber,” and the interior of the well in which the insert sits is referred to as the “lower chamber.”
Twenty-four hours before the assay, the upper chambers were washed with serum-free medium, and new medium containing TNF-α (3 ng/ml) was added to activate the HUVECs. […] After 3 hours incubation at 37° C. in 5% CO2, the extent of MV3 migration into the bottom chambers was assessed using a bottom-reading Cytofluor 2350 (Millipore Inc., Bedford Mass.). The amount of fluorescence in the lower chambers is directly related to the number of MV3 cells which have migrated through the HUVEC layer from the upper chamber. […]

In assay [2] the target is α2β1 integrin (Homo sapiens, UniProt P05556+P17301). Put plainly: adhesion of AJH10 blocked MV3 cells to immobilized collagen IV. Further details: endogenous in cells; host or cells: MV3 human melanoma cells. The class given is cell-based. Particulars: adhesion via α2β1. How it is done: (§1) The α1β1 integrin specific inhibitory effect of obtustatin was confirmed using human melanoma MV3 cells. MV3 cells express both the α1β1 and α2β1 integrins. MV3 cells adhere strongly to collagen IV through α1β1 and α2β1 integrin-mediated interactions.
(§2) Collagen IV (0.2 μg/well) in 0.02 M acetic acid was immobilized overnight at 4° C. on a 96-well plate. Plates were then blocked with 1% (w/v) BSA (bovine serum albumin) in Hank's Balanced Salt Solution (HBSS) containing 3 mM Mg^2+ at room temperature for 1-2 hours to prevent cells from non-specifically binding to the plates. α1K562 cells were labeled by incubation with 12.5 μM 5-chloromethylfluorescein diacetete (CMFDA) in HBSS for 15 minutes at 37° C. CMFDA labeled MV3 cells were then pelleted, washed and resuspended in HBSS buffer containing 3mM Mg^2+ and 1% (w/v) BSA. 1×10^5 cells were then added to each well in the presence (10 μg/ml) or absence of the α1 integrin subunit specific AJH10 mAb and α2 integrin subunit specific P1E6 mAb as indicated in FIG. 5. Obtustatin was added at the concentrations indicated in FIG. 5 simultaneously with the mAbs. The plates were then incubated at 37° C. for 30 minutes and washed three times with HBSS containing 3 mM Mg^2+ and 1% (w/v) BSA to remove unbound cells. […] Fluorescent CMFDA released by lysis of adherent cells in a given well was read using a Cytofluor 2350 fluorescence plate reader.

Assay [3] concerns the target T1, α9β1 integrin (Homo sapiens, UniProt P05556+Q13797).
T1 construct: expressed in transfected cells; host or cells: SW480α9 cells
Put plainly: adhesion of SW480α9 cells to VCAM-1. The class given is cell-based. The conditions noted are these: α9β1, VCAM-1.

Assay [4] has as its system α1β1 and α2β1 integrins. Put plainly: adhesion of unblocked MV3 cells to immobilized collagen IV. In kind it is cell-based, human. How it is done:
as §1
as §2, with “reader. […]” for “reader.”

Assay [5] deals with T2, αIIbβ3 integrin (Homo sapiens, UniProt P05106+P08514).
T2 construct: expressed in transfected cells; host or cells: A5 cells
Put plainly: adhesion of A5 cells to fibrinogen. In kind it is cell-based. How it is done:
Adhesive ligands for the selected integrins consisted of collagen IV (0.2 μg/well), collagen I, fibronectin, or vascular cell adhesion molecule-1 (VCAM-1). Adhesive ligands in 0.02 M acetic acid were immobilized overnight at 4° C. on a 96-well plate. Plates were then blocked with 1% (w/v) BSA (bovine serum albumin) in Hank's Balanced Salt Solution (HBSS) containing 3 mM Mg^2+ at room temperature for 1-2 hours to prevent cells from non-specifically binding to the plates. α1K562, α2K562, K562, A5, and Jurkat cells expressing the α1β1, α2β1, α5β1, αIIbβ3, and α4β1 integrins respectively were labeled by incubation with 12.5 μM 5-chloromethylfluorescein diacetate (CMFDA) in HBSS for 15 minutes at 37° C. CMFDA labeled cells were then pelleted, washed and resuspended in HBSS buffer containing 3 mM Mg^2+ and 1% (w/v) BSA. […] Plates were then incubated at 37° C. for 30 minutes as indicated in Table 5 and washed three times with HBSS containing 3 mM Mg^2+ and 1% (w/v) BSA to remove unbound cells. Bound cells were lysed using 0.5% (v/v) Triton X-100 in H2O. Fluorescent CMFDA released by lysis of adherent cells in a given well was read using a Cytofluor 2350 fluorescence plate reader.
The effect of obtustatin, viperisrastatin, echistatin, and eristostatin on the binding of selected integrins to their adhesive ligands was evaluated using the cell adhesion assay described in Example 6. The integrin-expressing cells, integrins and corresponding adhesive ligands, and the results of the cell adhesion assay are shown in Table 6.

Assay [6] has as its target T3, α6β1 integrin (Homo sapiens, UniProt P05556+P23229).
T3 construct: expressed in transfected cells; host or cells: α6K562 cells
Put plainly: adhesion of α6K562 cells to laminin. In kind it is cell-based. The conditions noted are these: α6β1, LM.

For assay [7], the target named is T4, αvβ3 integrin (Homo sapiens, UniProt P05106+P06756).
T4 construct: endogenous in cells; host or cells: JY cells
T4 sequence (P06756 31-889 limits assumed): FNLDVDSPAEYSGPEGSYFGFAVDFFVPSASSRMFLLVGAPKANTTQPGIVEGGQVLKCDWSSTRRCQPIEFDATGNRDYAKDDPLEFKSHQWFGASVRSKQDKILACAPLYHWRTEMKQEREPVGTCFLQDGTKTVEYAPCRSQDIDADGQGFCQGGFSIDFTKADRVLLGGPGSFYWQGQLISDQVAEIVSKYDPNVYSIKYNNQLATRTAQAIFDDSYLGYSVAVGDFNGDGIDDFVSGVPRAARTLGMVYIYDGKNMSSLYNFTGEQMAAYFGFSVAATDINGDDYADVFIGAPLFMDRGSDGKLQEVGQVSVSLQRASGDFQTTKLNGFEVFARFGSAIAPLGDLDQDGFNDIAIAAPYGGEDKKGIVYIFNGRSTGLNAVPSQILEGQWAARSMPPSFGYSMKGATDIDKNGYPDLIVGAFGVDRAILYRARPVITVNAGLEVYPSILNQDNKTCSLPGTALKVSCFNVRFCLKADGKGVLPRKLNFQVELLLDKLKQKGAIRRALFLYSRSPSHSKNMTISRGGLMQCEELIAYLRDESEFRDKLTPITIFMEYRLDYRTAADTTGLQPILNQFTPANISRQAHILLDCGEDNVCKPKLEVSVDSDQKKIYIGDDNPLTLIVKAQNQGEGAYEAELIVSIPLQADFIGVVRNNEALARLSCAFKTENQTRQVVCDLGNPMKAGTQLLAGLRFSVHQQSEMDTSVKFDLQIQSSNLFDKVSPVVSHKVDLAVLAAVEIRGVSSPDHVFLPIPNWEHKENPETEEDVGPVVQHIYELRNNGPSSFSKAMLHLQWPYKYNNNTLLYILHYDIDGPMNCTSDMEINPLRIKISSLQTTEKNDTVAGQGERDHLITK
T4 sequence (P06756 891-1048 partner limits assumed): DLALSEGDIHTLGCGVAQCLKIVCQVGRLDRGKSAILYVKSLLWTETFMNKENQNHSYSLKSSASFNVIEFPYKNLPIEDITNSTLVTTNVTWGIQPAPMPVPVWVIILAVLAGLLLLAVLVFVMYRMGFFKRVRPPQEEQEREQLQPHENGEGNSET
T4 sequence (P05106 27-788): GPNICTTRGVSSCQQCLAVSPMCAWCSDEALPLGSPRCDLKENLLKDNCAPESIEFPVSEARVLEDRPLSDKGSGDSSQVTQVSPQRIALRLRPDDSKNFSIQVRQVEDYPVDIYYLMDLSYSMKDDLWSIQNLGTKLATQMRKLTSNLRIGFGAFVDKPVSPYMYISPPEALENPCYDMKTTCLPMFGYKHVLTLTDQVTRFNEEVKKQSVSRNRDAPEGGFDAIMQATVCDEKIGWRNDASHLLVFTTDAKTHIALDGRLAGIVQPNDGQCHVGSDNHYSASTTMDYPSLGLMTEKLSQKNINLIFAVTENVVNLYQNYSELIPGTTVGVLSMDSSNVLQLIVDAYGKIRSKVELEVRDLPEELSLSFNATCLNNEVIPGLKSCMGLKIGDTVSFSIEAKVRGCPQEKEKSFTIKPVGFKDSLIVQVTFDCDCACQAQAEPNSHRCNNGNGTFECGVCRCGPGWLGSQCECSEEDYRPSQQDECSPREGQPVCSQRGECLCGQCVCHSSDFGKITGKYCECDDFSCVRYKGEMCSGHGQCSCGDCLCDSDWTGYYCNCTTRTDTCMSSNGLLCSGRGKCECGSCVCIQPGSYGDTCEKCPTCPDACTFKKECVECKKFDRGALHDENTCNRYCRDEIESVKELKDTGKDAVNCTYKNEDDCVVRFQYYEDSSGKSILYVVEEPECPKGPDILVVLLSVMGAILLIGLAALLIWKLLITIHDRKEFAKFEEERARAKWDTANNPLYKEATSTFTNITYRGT
The assay is described as follows: adhesion of JY cells to vitronectin. The conditions noted are these: αvβ3, VN. The class given is cell-based.

T1 sequence (Q13797 30-1035): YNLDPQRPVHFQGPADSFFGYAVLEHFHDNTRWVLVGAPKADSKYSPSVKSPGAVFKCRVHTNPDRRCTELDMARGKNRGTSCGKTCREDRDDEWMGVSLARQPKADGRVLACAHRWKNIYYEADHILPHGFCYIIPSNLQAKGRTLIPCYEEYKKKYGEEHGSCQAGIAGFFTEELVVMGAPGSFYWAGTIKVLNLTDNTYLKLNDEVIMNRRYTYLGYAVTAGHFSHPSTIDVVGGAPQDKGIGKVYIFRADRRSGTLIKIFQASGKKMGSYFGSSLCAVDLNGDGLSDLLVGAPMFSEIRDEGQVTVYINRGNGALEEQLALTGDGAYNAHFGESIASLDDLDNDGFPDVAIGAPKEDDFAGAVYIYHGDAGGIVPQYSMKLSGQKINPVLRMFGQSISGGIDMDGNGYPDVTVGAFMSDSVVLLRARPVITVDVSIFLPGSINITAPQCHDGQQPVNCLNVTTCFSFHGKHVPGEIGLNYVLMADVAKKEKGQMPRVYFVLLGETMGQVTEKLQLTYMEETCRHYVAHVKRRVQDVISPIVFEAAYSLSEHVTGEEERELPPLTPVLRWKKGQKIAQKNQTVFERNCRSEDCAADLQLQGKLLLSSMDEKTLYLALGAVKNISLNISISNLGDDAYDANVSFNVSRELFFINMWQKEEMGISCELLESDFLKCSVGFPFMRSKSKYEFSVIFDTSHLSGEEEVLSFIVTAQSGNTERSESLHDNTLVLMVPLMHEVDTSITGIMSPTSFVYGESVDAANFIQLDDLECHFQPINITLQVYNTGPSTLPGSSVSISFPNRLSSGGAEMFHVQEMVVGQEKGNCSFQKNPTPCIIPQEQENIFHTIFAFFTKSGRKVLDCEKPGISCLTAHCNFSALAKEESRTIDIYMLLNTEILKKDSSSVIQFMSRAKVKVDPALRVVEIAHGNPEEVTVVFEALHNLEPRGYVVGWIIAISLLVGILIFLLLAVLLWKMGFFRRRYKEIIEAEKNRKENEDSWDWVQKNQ
T1 sequence (P05556 21-798): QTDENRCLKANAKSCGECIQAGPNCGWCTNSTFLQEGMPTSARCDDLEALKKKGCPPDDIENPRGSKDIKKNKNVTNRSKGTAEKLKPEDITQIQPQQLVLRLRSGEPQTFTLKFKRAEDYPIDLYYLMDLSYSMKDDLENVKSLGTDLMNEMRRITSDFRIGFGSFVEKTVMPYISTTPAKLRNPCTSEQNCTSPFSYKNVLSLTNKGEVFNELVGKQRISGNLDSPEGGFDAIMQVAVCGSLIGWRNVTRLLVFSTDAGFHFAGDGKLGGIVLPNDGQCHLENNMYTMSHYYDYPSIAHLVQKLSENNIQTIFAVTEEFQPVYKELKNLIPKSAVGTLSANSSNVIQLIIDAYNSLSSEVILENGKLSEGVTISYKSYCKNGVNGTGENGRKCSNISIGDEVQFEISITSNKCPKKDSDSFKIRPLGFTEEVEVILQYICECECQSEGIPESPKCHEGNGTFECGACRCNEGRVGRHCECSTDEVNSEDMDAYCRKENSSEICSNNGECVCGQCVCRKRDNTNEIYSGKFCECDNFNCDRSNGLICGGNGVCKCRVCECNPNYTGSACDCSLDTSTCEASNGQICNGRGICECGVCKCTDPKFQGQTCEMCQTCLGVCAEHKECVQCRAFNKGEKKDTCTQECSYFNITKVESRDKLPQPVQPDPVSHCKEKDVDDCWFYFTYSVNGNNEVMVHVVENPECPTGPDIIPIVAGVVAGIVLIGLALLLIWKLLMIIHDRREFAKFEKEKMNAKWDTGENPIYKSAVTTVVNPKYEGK
T3 sequence (P23229 24-938 limits assumed): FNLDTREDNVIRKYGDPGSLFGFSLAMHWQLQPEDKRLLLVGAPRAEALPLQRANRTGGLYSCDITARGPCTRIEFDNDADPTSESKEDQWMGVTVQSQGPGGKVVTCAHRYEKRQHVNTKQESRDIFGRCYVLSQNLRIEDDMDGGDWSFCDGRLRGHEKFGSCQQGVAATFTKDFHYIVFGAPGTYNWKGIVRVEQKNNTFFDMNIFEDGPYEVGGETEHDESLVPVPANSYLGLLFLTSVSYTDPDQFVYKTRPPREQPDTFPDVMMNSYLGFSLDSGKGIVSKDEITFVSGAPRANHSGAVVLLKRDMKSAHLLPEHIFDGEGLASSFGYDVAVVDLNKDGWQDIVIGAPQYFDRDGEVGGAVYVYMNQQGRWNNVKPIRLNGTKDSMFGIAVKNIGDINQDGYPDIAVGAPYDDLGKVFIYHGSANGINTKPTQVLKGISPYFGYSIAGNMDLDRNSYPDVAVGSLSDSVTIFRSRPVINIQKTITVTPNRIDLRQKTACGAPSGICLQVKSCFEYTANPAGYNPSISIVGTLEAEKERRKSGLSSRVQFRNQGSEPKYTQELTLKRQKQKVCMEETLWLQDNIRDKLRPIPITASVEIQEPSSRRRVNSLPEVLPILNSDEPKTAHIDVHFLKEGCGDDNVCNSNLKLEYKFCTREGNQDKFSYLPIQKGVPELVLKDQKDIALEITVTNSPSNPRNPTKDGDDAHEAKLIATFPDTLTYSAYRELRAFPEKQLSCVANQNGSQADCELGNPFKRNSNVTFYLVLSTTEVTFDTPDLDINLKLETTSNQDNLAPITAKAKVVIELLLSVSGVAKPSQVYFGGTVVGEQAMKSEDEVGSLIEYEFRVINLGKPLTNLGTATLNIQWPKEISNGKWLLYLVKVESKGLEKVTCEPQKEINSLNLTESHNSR
T3 sequence (P23229 942-1130 partner limits assumed): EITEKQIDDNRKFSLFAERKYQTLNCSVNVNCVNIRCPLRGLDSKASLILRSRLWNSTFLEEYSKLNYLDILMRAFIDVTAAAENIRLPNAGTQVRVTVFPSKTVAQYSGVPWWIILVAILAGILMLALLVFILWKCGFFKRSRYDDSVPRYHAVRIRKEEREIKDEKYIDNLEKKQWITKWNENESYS
T3 sequence (P05556 21-798): as the sequence (P05556 21-798) above

As to “Obtustatin (CTTGPCCRQCKLKPAGTTCWKTSLTSHYCTGKSCDCPLYPG)”, in assay [1] (collagen IV or FGF as chemoattractants, 0 to 500 nM), the “migration of MV3 cells through the HUVEC layer” value was “inhibited migration”. Further, the “concentration giving essentially complete inhibition of MV3 cell migration” value in assay [1] (through HUVEC layer) is “above 200 nM”. Further, the “inhibition of adhesion of MV3 cells to collagen IV” value in assay [2] and in assay [4] was “comparatively insensitive” each time. Also, the IC50 in assay [3], in assay [5], in assay [6] and in assay [7] was more than 10 µM throughout.
